Values belong to the binder of their own block, whether it stands above or below them.
Assays:
[1] = molecular target: T1, human CXCR4 (human, UniProt P61073 1-352); test: flow cytometry; Batch1
T1 chain: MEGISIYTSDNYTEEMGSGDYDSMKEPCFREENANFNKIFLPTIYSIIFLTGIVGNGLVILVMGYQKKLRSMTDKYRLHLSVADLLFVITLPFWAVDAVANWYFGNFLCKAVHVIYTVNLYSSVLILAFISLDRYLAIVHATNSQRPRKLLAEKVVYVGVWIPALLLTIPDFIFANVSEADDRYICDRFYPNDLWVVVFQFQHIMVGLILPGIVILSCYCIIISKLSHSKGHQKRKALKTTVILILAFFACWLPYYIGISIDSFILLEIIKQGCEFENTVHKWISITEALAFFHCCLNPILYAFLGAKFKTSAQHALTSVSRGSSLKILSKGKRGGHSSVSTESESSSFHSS

[2] = molecular target: T1, human CXCR4; test: flow cytometry; Batch2
[3] = molecular target: T1, human CXCR4; test: flow cytometry; Batch2
[4] = molecular target: T1, human CXCR4; test: flow cytometry; Batch1
[5] = molecular target: T1, human CXCR4; test: flow cytometry
[6] = molecular target: T1, human CXCR4; test: flow cytometry
[7] = molecular target: T1, human CXCR4; test: flow cytometry; Batch2
[8] = molecular target: T1, human CXCR4; test: flow cytometry; Batch1

B3: V62.1-R108H (antibody, V domains shown)
VH: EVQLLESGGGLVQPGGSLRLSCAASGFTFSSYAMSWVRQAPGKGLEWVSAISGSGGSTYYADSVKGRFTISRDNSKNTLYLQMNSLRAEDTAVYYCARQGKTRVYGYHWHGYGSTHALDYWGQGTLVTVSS
VL: EIVLTQSPGTLSLSPGERATLSCRASQSVSSSYLAWYQQKPGQAPRLLIYGASSRATGIPDRFSGSGSGTDFTLTISRLEPEDFAVYYCQQSDYSYPFTFGQGTKVEIKR
- EC50 [5]: ~1.8 nM

B4: V62.1 (antibody, V domains shown)
VH: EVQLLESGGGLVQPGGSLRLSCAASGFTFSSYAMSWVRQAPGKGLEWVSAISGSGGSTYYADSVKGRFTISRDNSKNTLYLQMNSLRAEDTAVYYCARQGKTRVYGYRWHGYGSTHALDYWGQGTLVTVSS
VL: EIVLTQSPGTLSLSPGERATLSCRASQSVSSSYLAWYQQKPGQAPRLLIYGASSRATGIPDRFSGSGSGTDFTLTISRLEPEDFAVYYCQQSDYSYPFTFGQGTKVEIKR
- EC50 [6]: ~2.2 nM

Results, then the binder that gave them:

- EC50 [1]: ~0.6 nM
- EC50 [2]: ~1.1 nM
B1: V62.1-R108H-m43-m38 (antibody, V domains shown)
VH: EVQLLESGGGLVQPGGSLRLSCAASGFTFSSYAMSWVRQAPGKGLEWVSAISGSGGGSTRYADSVKGRFTISRDNSKNTLYLQMNSLRAEDTAVYYCARQGKTRVYGYHWHGYGSTHALDYWGQGTLVTVSS
VL: EIVLTQSPGTLSLSPGERATLSCRASQSVSSSYLAWYQQKPGQAPRLLIYGASSRATGIPDRFSGSGSGTDFTLTISRLEPEDFAVYYCQQWSSDSVTFGQGTKVEIKR

- EC50 [3]: ~0.8 nM
- EC50 [4]: ~0.7 nM
B2: V62.1-R108H-m47-m38 (antibody, V domains shown)
VH: EVQLLESGGGLVQPGGSLRLSCAASGFTFSSYAMSWVRQAPGKGLEWVSAISGSGGTRYADSVKGRFTISRDNSKNTLYLQMNSLRAEDTAVYYCARQGKTRVYGYHWHGYGSTHALDYWGQGTLVTVSS
VL: EIVLTQSPGTLSLSPGERATLSCRASQSVSSSYLAWYQQKPGQAPRLLIYGASSRATGIPDRFSGSGSGTDFTLTISRLEPEDFAVYYCQQWSSDSVTFGQGTKVEIKR

- EC50 [7]: ~1.2 nM
- EC50 [8]: ~1.2 nM
B5: V62.1-R108H-m80 (antibody, V domains shown)
VH: EVQLLESGGGLVQPGGSLRLSCAASGFTISPYSITWVRQAPGKGLEWVSQINSYNGKTYYADSVKGRFTISRDNSKNTLYLQMNSLRAEDTAVYYCARQGKTRVYGYHWHGYGSTHALDYWGQGTLVTVSS
VL: EIVLTQSPGTLSLSPGERATLSCRASQSVSSSYLAWYQQKPGQAPRLLIYGASSRATGIPDRFSGSGSGTDFTLTISRLEPEDFAVYYCQQSDYSYPFTFGQGTKVEIKR
